Assay results: paper PMC3025021, “Structural Basis of Enzymatic Activity for the Ferulic Acid Decarboxylase (FADase) from Enterobacter sp. Px6-4” (PLoS ONE, 2011)

B1: FADase (ferulic acid decarboxylase) (Enterobacter sp. Px6-4) (protein)
chain: MNTFDKHDLSGFVGKHLVYTYDNGWEYEIYVKNENTLDYRIHSGLVGNRWVKDQQAYIVRVGESIYKISWTEPTGTDVSLIVNLGDSLFHGTIFFPRWVMNNPEKTVCFQNDHIPLMNSYRDAGPAYPTEVIDEFATITFVRDCGANNESVIACAASELPKNFPDNLK
notes: full-length Met1-Lys168, pET-28a(+) EcoRI/HindIII, Ni-NTA purified, E. coli BL21(DE3); 23 kDa subunit, homodimer (44 kDa)

Legend:
COc1cc(/C=C/C(=O)O)ccc1O = test system: T1, COc1cc(/C=C/C(=O)O)ccc1O; assay: HPLC decarboxylation assay; format: biochemical, Enterobacter sp. Px6-4; conditions: 50 mM sodium phosphate pH 4.0, 28 °C (standard activity assay)
T1 construct: full-length Met1-Lys168, pET-28a(+) EcoRI/HindIII, Ni-NTA purified, E. coli BL21(DE3); 23 kDa subunit, homodimer (44 kDa)
Text: (§1) HPLC decarboxylation assay on FADase (ferulic acid decarboxylase)

[1] = target: Ferulic acid decarboxylase (FADase) from Enterobacter sp. Px6-4 (Enterobacter sp. Px6-4); assay: cross-linking; cross-linking of FADase with ethylene glycolbis (EGS), read on a gel
[2] = target: Ferulic acid decarboxylase (FADase) from Enterobacter sp. Px6-4 (Enterobacter sp. Px6-4); assay: SEC; gel-filtration / size exclusion chromatography of recombinant FADase; data not shown
[3] = target: T2, FADase (ferulic acid decarboxylase) (Enterobacter sp. Px6-4, UniProt C6F3U5); assay: X-ray crystal structure, soaking, […] Å; format: binding; conditions: crystals soaked overnight with 7 mM sodium ferulate; active site of monomer A
T2 construct: full-length Met1-Lys168, pET-28a(+) EcoRI/HindIII, Ni-NTA purified, E. coli BL21(DE3); 23 kDa subunit, homodimer (44 kDa)
T2 sequence (C6F3U5 1-168): B1 chain

[4] = substrate: COc1cc(/C=C/C(=O)O)ccc1O; assay: HPLC decarboxylation assay; format: biochemical, Enterobacter sp. Px6-4; conditions: 50 mM sodium phosphate pH 4.0, 28 °C (standard activity assay)
Text: as §1

Row | Molecule | Km (COc1cc(/C=C/C(=O)O)ccc1O) [µM] | Vmax (COc1cc(/C=C/C(=O)O)ccc1O) [µM/min] | kcat (COc1cc(/C=C/C(=O)O)ccc1O) [s⁻¹] | kcat/Km (COc1cc(/C=C/C(=O)O)ccc1O) [M⁻¹ s⁻¹] | further results
1 | FADase (ferulic acid decarboxylase) (Enterobacter sp. Px6-4; W25A) | 730 | 39.6 | 0.02 | 20 | –
2 | Ferulic acid decarboxylase (FADase) from Enterobacter sp. Px6-4 (enzyme) | – | – | – | – | stoichiometry N [1]: 2; stoichiometry N [2]: 2
3 | FADase (ferulic acid decarboxylase) (Enterobacter sp. Px6-4; E134A) | 3520 | 285 | 0.995 | 280 | –
4 | COc1cc(/C=C/C(=O)O)ccc1O [sodium ferulate] | – | – | – | – | X-ray crystal structure, soaking, 2.1 Å [3]: The crystal structure of FADase in complex with the substrate analog sodium ferulate
5 | B1 | – | – | – | – | Km [4]: 2360 µM; Vmax [4]: 606 µM/min; kcat [4]: 2.15 s⁻¹; kcat/Km [4]: 910 M⁻¹ s⁻¹
